The labels stand for the following.
B1: Twister Ribozyme (parent)
chain: AACACUGCCAAUGCCGGUCCCAAGCCCGGAUAAAAGUGGAGGGGGCGG

We go through 167 variants from the RNAGym collection of RNA variant scans (doi:10.7554/elife.80360).

The variants in this data set derive from B1. The data set is described as follows: self-cleavage, relative activity (ratio to wild type); higher = more cleavage; co-transcriptional.
As to C25G G29A, the self-cleavage amounted to 0.564.
In the case of G24C G42U, the self-cleavage worked out at 0.0759.
A34G: the self-cleavage came to 0.874.
The result for A4U G44A reads 0.248; that for G13C C19A, 0.0574.
With U18G C19G, the self-cleavage was determined as 0.114.
Regarding A2G G44A, the self-cleavage amounted to 0.316.
The result for G16C C20G reads 0.104; that for A34C C46G, 0.154; that for C26G G48C, 0.229.
For C8G G16U the value was 0.108; for A30U G44U, 0.973.
For A2G G7C the value was 0.087; for U31A G44A, 0.689; for A10G G42U, 0.493.
Consider C14U G43U, for which the self-cleavage is 0.526.
The result for A22G G36A reads 0.0781; that for A22C G28U, 0.937; that for A4C G38U, 0.591.
The result for A10G C15G reads 0.136.
For the variant A40C G41C, the self-cleavage was found to be 0.15.
The result for C3A U31C reads 0.224.
U12G A35G: the self-cleavage amounted to 0.815.
Take A1G G28A: the self-cleavage came to 0.406.
For G13A A32U the value was 0.961; for G7A A23C, 0.0662; for G16C G42C, 0.121.
As to U31G G43A, the self-cleavage was found to be 0.324.
As to A1G G42A, the self-cleavage was 0.215.
The result for A23G C25G reads 0.0343.
The result for C15A G41A reads 0.189.
A22G U31A: the self-cleavage was determined as 0.196.
With C20G C27G, the self-cleavage turned out to be 0.0793.
Consider A22U A33U, for which the self-cleavage stood at 0.698.
In the case of C8G U31A, the self-cleavage was determined as 0.472.
In the case of G36U G48A, the self-cleavage came out at 0.43.
For A4U G41U the value was 0.0632.
The result for A11C reads 0.906.
In the case of A22G A40G, the self-cleavage was 0.588.
C21A U31G: the self-cleavage came to 0.119.
Turning to C5A U6C, the self-cleavage was found to be 0.112.
For U18G G36U the value was 0.083.
As for C9G, the self-cleavage amounted to 0.733.
On to C8G G47C, for which the self-cleavage came to 0.186.
In the case of C8G G38C, the self-cleavage came out at 0.145.
For G28A G41U the value was 0.397.
For G39C G47C the value was 0.167; for C25G G28U, 0.259; for U18A C27U, 0.385.
For A1C G38C, the self-cleavage turned out to be 0.22.
For A10U U31G the value was 0.948; for C3A U6A, 0.0998.
The result for G13A G28C reads 0.581; that for G42U G47U, 0.296; that for G24C G39A, 0.0888.
For C20A A33U the value was 0.0982.
Turning to A35G A40U, the self-cleavage was found to be 0.107.
The result for A11U A30U reads 1.01; that for A23C U37G, 0.0666.
For C27A G42C, the self-cleavage is 0.139.
The result for C15U A34C reads 0.205.
For U31G G39C the value was 0.144.
As to G38C C46A, the self-cleavage worked out at 0.791.
The result for A30U U31A reads 0.931.
For A10U G48A the value was 0.959; for C21G A22G, 0.135.
Regarding A2U C20A, the self-cleavage amounted to 0.08.
For the variant A35C U37G, the self-cleavage was found to be 0.703.
For U12C G41U the value was 0.614; for U18G G48C, 0.111.
For U6C C27A the value was 0.0694.
Consider C26U A40G, for which the self-cleavage turned out to be 0.0722.
In the case of C21U A40U, the self-cleavage amounted to 0.0831.
G47U: the self-cleavage worked out at 0.965.
For the variant C14U G17U, the self-cleavage came to 0.373.
For the variant C5A G47A, the self-cleavage was 0.523.
For U6G G48C the value was 0.358; for A11C C26U, 0.137.
The result for U12C G36C reads 0.559.
Consider U6A U37C, for which the self-cleavage was determined as 0.124.
For U12G G42C the value was 0.369; for U18G G38A, 0.0601; for G43U G44C, 0.767.
For A35U G36C, the self-cleavage worked out at 0.592.
A2U G48U: the self-cleavage came to 0.581.
For U12A G36A the value was 0.924.
For C26U G47C, the self-cleavage came to 0.181.
The result for U18C G47A reads 0.288.
The result for A23U G48U reads 0.439.
With G13U C15A, the self-cleavage came to 0.11.
For A2C A10G the value was 0.151.
The result for G29A U31A reads 1.17.
Consider A4C C14U, for which the self-cleavage was 0.257.
For C15A C25U the value was 0.436.
Take G28A A34U: the self-cleavage amounted to 0.497.
For the variant G17C A34U, the self-cleavage came to 0.0853.
For G16U C21G the value was 0.101.
In the case of G45U G47C, the self-cleavage was 0.435.
The result for C15U A33G reads 0.802; that for G13A G17U, 0.108; that for U12G G48C, 0.929.
The result for G17U G43C reads 0.0878; that for A1U A30G, 0.074.
The result for C14G G48U reads 0.128; that for U12A G48A, 0.991.
A32C G36U: the self-cleavage was 0.184.
For U37C G43C the value was 0.102; for C26G A30U, 0.295; for G13A G42A, 0.186.
For A1G G48C the value was 0.524.
For G39U C46G the value was 0.172; for G36C G39C, 0.113; for C15U G41C, 0.209.
In the case of A22C C25U, the self-cleavage is 0.948.
In the case of G39A, the self-cleavage stood at 0.568.
For G45C C46G the value was 1.61.
The result for C19U U37G reads 0.621.
The result for C25U U31G reads 0.627.
For the variant A34U A35U, the self-cleavage amounted to 0.841.
For A2C C21A the value was 0.0892; for C8U G36C, 0.106.
For A10U C19U, the self-cleavage stood at 0.92.
With G29A G38C, the self-cleavage was determined as 0.7.
As to C3G C27U, the self-cleavage is 0.327.
For the variant A10G A34C, the self-cleavage worked out at 0.498.
The result for G17A G39U reads 0.165; that for A10G U37G, 0.89; that for U12A G39C, 0.127.
For U12C A33U the value was 1.01; for C14G G16U, 0.138.
For the variant A2G A40G, the self-cleavage was 0.0967.
The result for G43U C46U reads 0.426; that for C19U G36A, 0.167; that for G28A G38C, 0.691.
For A10C C19G the value was 0.309; for G24U A33C, 0.142.
Consider C3U A34G, for which the self-cleavage came out at 0.153.
With U12C C27G, the self-cleavage was 0.0656.
Turning to G17A A30U, the self-cleavage was 0.695.
With C25G A30G, the self-cleavage was determined as 0.625.
The result for C25G A30U reads 0.31; that for U18G G42C, 0.0775; that for A4G A34C, 0.128.
On to C26U G45C, for which the self-cleavage amounted to 0.0973.
Turning to A2G U6G, the self-cleavage was determined as 0.161.
The result for A1U C9A reads 0.0518; that for G17U A22U, 0.161; that for C14A C26G, 0.118.
Consider C14A A23G, for which the self-cleavage is 0.525.
G24U A40G: the self-cleavage was 0.0745.
In the case of C15G A33C, the self-cleavage worked out at 0.0859.
A22C G44A: the self-cleavage is 0.914.
The result for A10G G28C reads 1.05; that for C5U G45A, 0.605.
On to A10C A32G, for which the self-cleavage stood at 0.971.
Take C3G G42U: the self-cleavage was found to be 0.118.
For C3G G36U the value was 0.144; for A33C G42C, 0.19; for G45U G48U, 0.757.
Consider A34C G47U, for which the self-cleavage is 0.107.
For C15G G42U the value was 0.084.
Regarding A11G A22G, the self-cleavage was 0.23.
The result for A32G G39A reads 0.48; that for C3G A11C, 0.295.
The result for C15U A23U reads 0.291; that for G39A G47C, 0.137; that for A1U, 0.0597.
